These results are taken from the RNAGym collection of RNA variant scans (doi:10.7554/elife.80360).

B1: HDV Ribozyme (parent)
chain: GGCCGGCAUGGUCCCAGCCUCCUCGCUGGCGCCGGCUGGGCAACAUUCCGAGGGGACCGUCCCCUCGGUAAUGGCGAAUGGGACCCA

The series covers variants of B1. The experiment in a line: self-cleavage, relative activity (ratio to wild type); higher = more cleavage; co-transcriptional.
Turning to GGCCGGCAUGGUCCCAGCCUCCUCGCUGGCGCCGGCUGGGCAACAUUCCGUGGGGACCGUCCCCUCGGUAAUGGCGAUUGGGACCCA [A51U A78U], the self-cleavage was 0.282.
Under GGCCGGCAUGGUCCCAGCCUCCUCGCUGGCGCCGGCUGGGCAACAUUCCGUGGGGUCCGUCCCCUCGGUAAUGGCGAAUGGGACCCA [A51U A56U] stands 1.25; under GGCCGGCAUGGUCCCAGCCUCCUCGCUGGCGCCGGCUGGGCAACAUUCCGUGGGGACCGUCCGCUCGGUAAUGGCGAAUGGGACCCA [A51U C63G], 0.208; under GGCCGGCAUGGUCCCAGCCUCCUCGCUGGCGCCGGCUGGGCAACAUUCCGUGGUGACCGUCCCCUCGGUAAUGGCGAAUGGGACCCA [A51U G54U], 1.02.
The figure for GGCCGGCAUGGUCCCAGCCUCCUCGCUGGCGCCGGCUGGGCAACAUUCCGUGGGGACCGUCCCCUCGGUAAUGGCGAAUGGGAACCA [A51U C84A] is 0.916; for GGCCGGCAUGGUCCCAGCCUCCUCGCUGGCGCCGGCUGGGCAACAUUCCGAAGGGUCCGUCCCCUCGGUAAUGGCGAAUGGGACCCA [G52A A56U] it is 1.1.
The figure for GGCCGGCAUGGUCCCAGCCUCCUCGCUGGCGCCGGCUGGGCAACAUUCCGUGGGGACCGUCCCCUCGGUAAUGGCGAAUCGGACCCA [A51U G80C] is 0.208.
Regarding GGCCGGCAUGGUCCCAGCCUCCUCGCUGGCGCCGGCUGGGCAACAUUCCGGUGGGACCGUCCCCUCGGUAAUGGCGAAUGGGACCCA [A51G G52U], the self-cleavage amounted to 1.02.
The figure for GGCCGGCAUGGUCCCAGCCUCCUCGCUGGCGCCGGCUGGGCAACAUUCCGGGGGGACCGUCCCCGCGGUAAUGGCGAAUGGGACCCA [A51G U65G] is 0.682.
Turning to GGCCGGCAUGGUCCCAGCCUCCUCGCUGGCGCCGGCUGGGCAACAUUCCGGGGGGACCGUCCCCACGGUAAUGGCGAAUGGGACCCA [A51G U65A], the self-cleavage was determined as 0.7.
As for GGCCGGCAUGGUCCCAGCCUCCUCGCUGGCGCCGGCUGGGCAACAUUCCGUGGGGACCGUCCCCUCGGUUAUGGCGAAUGGGACCCA [A51U A70U], the self-cleavage came to 0.849.
As for GGCCGGCAUGGUCCCAGCCUCCUCGCUGGCGCCGGCUGGGCAACAUUCCGUGGGGACCGUCCCCUCGGUCAUGGCGAAUGGGACCCA [A51U A70C], the self-cleavage was determined as 0.886.
Under GGCCGGCAUGGUCCCAGCCUCCUCGCUGGCGCCGGCUGGGCAACAUUCCGUGGGGACCGUCCCCUCGGUGAUGGCGAAUGGGACCCA [A51U A70G] stands 0.972; under GGCCGGCAUGGUCCCAGCCUCCUCGCUGGCGCCGGCUGGGCAACAUUCCGUGGGGACCGUCCCCUCGGUAAUGGCGAAUGAGACCCA [A51U G81A], 0.601; under GGCCGGCAUGGUCCCAGCCUCCUCGCUGGCGCCGGCUGGGCAACAUUCCGUGGGGACCGUCCCCUCGGUACUGGCGAAUGGGACCCA [A51U A71C], 0.856.
Under GGCCGGCAUGGUCCCAGCCUCCUCGCUGGCGCCGGCUGGGCAACAUUCCGUGGGGAGCGUCCCCUCGGUAAUGGCGAAUGGGACCCA [A51U C57G] stands 1.04.
Under GGCCGGCAUGGUCCCAGCCUCCUCGCUGGCGCCGGCUGGGCAACAUUCCGGGGGGACCGUCCCCUCGGUAAUGGCGAAUGGGACCUA [A51G C86U] stands 1.13; under GGCCGGCAUGGUCCCAGCCUCCUCGCUGGCGCCGGCUGGGCAACAUUCCGUGGGGACCGUCCCCUCGGUAACGGCGAAUGGGACCCA [A51U U72C], 0.608.
As to GGCCGGCAUGGUCCCAGCCUCCUCGCUGGCGCCGGCUGGGCAACAUUCCGUGGGGACCGUCCCCUCGGUAAAGGCGAAUGGGACCCA [A51U U72A], the self-cleavage was 0.628.
The figure for GGCCGGCAUGGUCCCAGCCUCCUCGCUGGCGCCGGCUGGGCAACAUUCCGGGGGGACCGUCCCCUCGGUAAUGGCGAAUGUGACCCA [A51G G81U] is 0.356; for GGCCGGCAUGGUCCCAGCCUCCUCGCUGGCGCCGGCUGGGCAACAUUCCGUGGGGACCGUCCCCUAGGUAAUGGCGAAUGGGACCCA [A51U C66A] it is 0.764.
Under GGCCGGCAUGGUCCCAGCCUCCUCGCUGGCGCCGGCUGGGCAACAUUCCGGGGGGACCGUCCCCUCGGUAAUGGCGAACGGGACCCA [A51G U79C] stands 0.354.
Under GGCCGGCAUGGUCCCAGCCUCCUCGCUGGCGCCGGCUGGGCAACAUUCCGGGGGGACCGGCCCCUCGGUAAUGGCGAAUGGGACCCA [A51G U60G] stands 0.867; under GGCCGGCAUGGUCCCAGCCUCCUCGCUGGCGCCGGCUGGGCAACAUUCCGGGGGGACCGUCCCCUCGGUAAUGCCGAAUGGGACCCA [A51G G74C], 0.148.
For GGCCGGCAUGGUCCCAGCCUCCUCGCUGGCGCCGGCUGGGCAACAUUCCGUGGGGACCGUCCCCUCGGUAAUGGCGAAUGGAACCCA [A51U G82A], the self-cleavage came to 0.543.
For GGCCGGCAUGGUCCCAGCCUCCUCGCUGGCGCCGGCUGGGCAACAUUCCGUGGGGACCGUCCCCUCGGUAAUGGCGAAUGGUACCCA [A51U G82U], the self-cleavage was determined as 0.373.
The figure for GGCCGGCAUGGUCCCAGCCUCCUCGCUGGCGCCGGCUGGGCAACAUUCCGGGGGGACCGUCCCCUCGGUAAUGGCGAAUGGGACUCA [A51G C85U] is 0.743; for GGCCGGCAUGGUCCCAGCCUCCUCGCUGGCGCCGGCUGGGCAACAUUCCGGGGGGACCGUCCCCUCGGUAAUGGCGAAUGGGACGCA [A51G C85G] it is 0.984; for GGCCGGCAUGGUCCCAGCCUCCUCGCUGGCGCCGGCUGGGCAACAUUCCGUGGGCACCGUCCCCUCGGUAAUGGCGAAUGGGACCCA [A51U G55C] it is 1.01.
Consider GGCCGGCAUGGUCCCAGCCUCCUCGCUGGCGCCGGCUGGGCAACAUUCCGUGGGAACCGUCCCCUCGGUAAUGGCGAAUGGGACCCA [A51U G55A], for which the self-cleavage was determined as 1.17.
Turning to GGCCGGCAUGGUCCCAGCCUCCUCGCUGGCGCCGGCUGGGCAACAUUCCGGGGGUACCGUCCCCUCGGUAAUGGCGAAUGGGACCCA [A51G G55U], the self-cleavage turned out to be 1.06.
Take GGCCGGCAUGGUCCCAGCCUCCUCGCUGGCGCCGGCUGGGCAACAUUCCGGGGGGACCGUGCCCUCGGUAAUGGCGAAUGGGACCCA [A51G C61G]: the self-cleavage amounted to 0.964.
